# Test results from IntAct's records for PubMed 11864996.
# B1: Forkhead box protein O3 (Homo sapiens), O43524 (parent)
# chain: MAEAPASPAPLSPLEVELDPEFEPQSRPRSCTWPLQRPELQASPAKPSGETAADSMIPEEEDDEDDEDGGGRAGSAMAIGGGGGSGTLGSGLLLEDSARVLAPGGQDPGSGPATAAGGLSGGTQALLQPQQPLPPPQPGAAGGSGQPRKCSSRRNAWGNLSYADLITRAIESSPDKRLTLSQIYEWMVRCVPYFKDKGDSNSSAGWKNSIRHNLSLHSRFMRVQNEGTGKSSWWIINPDGGKSGKAPRRRAVSMDNSNKYTKSRGRAAKKKAALQTAPESADDSPSQLSKWPGSPTSRSSDELDAWTDFRSRTNSNASTVSGRLSPIMASTELDEVQDDDAPLSPMLYSSSASLSPSVSKPCTVELPRLTDMAGTMNLNDGLTENLMDDLLDNITLPPSQPSPTGGLMQRSSSFPYTTKGSGLGSPTSSFNSTVFGPSSLNSLRQSPMQTIQENKPATFSSMSHYGNQTLQDLLTSDSLSHSDVMMTQSDPLMSQASTAVSAQNSRRNVMLRNDPMMSFAAQPNQGSLVNQNLLHHQHQTQGALGGSRALSNSVSNMGLSESSSLGSAKHQQQSPVSQSMQTLSDSLSGSSLYSTSANLPVMGHEKFPSDLDLDMFNGSLECDMESIIRSELMDADGLDFNFDSLISTQNVVGLNVGNFTGAKQASSQSWVPG
# Variants of: B1
# Details: with 1433z_human YWHAZ
row,effect of a mutation on the interaction,Variant
1,disrupting interaction,T32A;S253A;S315A
